# Experimental data from the RNAGym collection of RNA variant scans (doi:10.1073/pnas.2313332121).
# B1: TPR t1 (parent)
# chain: GACCAAUCUGCCCUCAGAGCUCGAGAACAUCUUCGGAUGCAGAGGAGGCAGGCUUCGGUGGCGCGAUAGCGCCAACGUCCUCAACCUCCAAUGCAUCCCACCACAUGAUGAUGCCUGAAGAGCCUUGGUUUUUUG
# Variants of: B1
# Assay: polymerase ribozyme fitness, log enrichment relative to wild type (log ratio); higher = more active; in vitro selection for triplet polymerase activity
# How it was run: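 Fitness measures genotype enrichment against wild-type enrichment on a logarithmic scale, with inverse-variance-weighted averaging of replicates. The logarithm is base 2, and genotypes were kept only with ≥10 input reads and ≥1 read per output in Illumina sequencing. The sequenced libraries came from one triplicate in vitro selection round, including frozen incubation at −7 °C, of PCR-built, transcribed mutant libraries of each subunit of a heterodimeric triplet polymerase ribozyme.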
row,Variant,polymerase ribozyme fitness (log ratio)
1,GACCAAUCUGCCCUCAGAGCUCAAGAACAUCUUCGGAUGCAGAGGAGGCAGGCUUCGGUGGCGCGAUAGCGCCAACGUCCUCAACCUCCAAUGCAUCCCACCACAUGAUGAUGCCUGAAGAGACUUGGUUUUUUG [G23A C123A],-4.67
2,GACCAAUCUGCCCUCAGAGCUCGCGAACAUCUUCGGAUGCAGAGGAGGCAGGCUUCGGUGGCGCGAUAGCGCAAACGUCCUCAACCUCCAAUGCAUCCCACCACAUGAUGAUGCCUGAAGAGCCUUGGUUUUUUG [A24C C73A],-6.46
3,GACCAAUCUGCCCUCAGAGCUUGAGAACAUCUUCGGAUGCAGAGGAGGCAGGCUUCGGUGGCGCGAUAGCGCCAACGACCUCAACCUCCAAUGCAUCCCACCACAGGAUGAUGCCUGAACAGCCUUGGUUUUUUG [C22U U78A U106G G120C],-5.48
4,GACCAAUCUGCCCUCAGAGCUCUAGAACAUCUUCGGAUGCAGAGGAGGCAAGCUUCGGUGGCGCGAUAGAGCCAACGUCCUCAACCUCCAAUGCAUCCCAACACAUGAUAAUGACUGAAGAGCCUUGGUUUUUUG [G23U G51A C70A C101A G110A C114A],-6.74
5,GACCAAUCUGCCCUCAGAGCUCCAGAACAUCUUCGGAUGCAGAGGUGGCAGGCUUCGGUGGCGCGAUAGCGCCAACGUCCUCAACAUCCAAUGCAUCCCACCACAUGAUGAUGCCUGAUAAGCCUUGGUUUUUUG [G23C A46U C86A A119U G120A],-6.31
6,GACCAAUCUGCCCUCAGAGCUCCAGAACAUCUUCGGAUGCAGAGGAGGCAGGCUUCGGUGGCGCGAUAGCGCCAACGUCCUCAACCUCCAAUGCAUCCCACCACAUGAUGAUGCCUGAAGGGCCUUGGUUUUUUG [G23C A121G],-6.91
7,GACCAAUCUGCCCUCAGAGCUCUAGAACAUCUUCGGAUGCAUAGGAGGCAGGCGUCGGUGGCGGGAUAGCGCCAACGUCCUCAACCUCCAAUCCAUCCCACCACAUGAUGAUGCCUCAAGAGCCUUGGUUUUUUG [G23U G42U U54G C64G G93C G117C],-6.49
8,GACCAAUCUGCCCUCAGAGCUCAAGAACAUCUUCGGAUGCAGAGGAGGCAGGCUUCGGUGGCCCGAUAGCGCCAACGUCCUCAACCUCCAAUGCAUCCCACCACAUGAUGAUGCCUGAAGAGCCUUGGUUUUUUG [G23A G63C],-3.02
9,GACCAAUCUGCCCUCAGAGCUCGCGAACAUCUUCGUUUGCAUAGGAGGCAGGCUUCGGUGACGCGAUAGCGCCAACGUACUCAACCUCCAAUGCAUCCCACCACAUGAUCAUGCCUGAAGAGUCUUGGUUUUUUG [A24C G36U A37U G42U G61A C79A G110C C123U],-7.34
10,GACCAAUCUGCCCUCAGAGCUUGAGAACAUCUUCGGAUGCAGAGGAGGCAGGCUUCGGUGGCGCGAUAGCGCCAACGUCCUCAACCUCCAAUGCAUCCCACCACAUGAUGAUGCCUGAAGAGCCUUGGUGUUUUG [C22U U130G],-3.78
11,GACCAAUCUGCCCUCAGAGCUCUAGAACAUCUUCGGAUGCAGAGGAGGCAUGCUUAGGUGGCCCGAUACCGCCAACGUCCUCAACCUCCAAUGCAUCCCACCACAUGAUGAUGACUGAAGUGCCUUGGUUUUUUG [G23U G51U C56A G63C G69C C114A A121U],-5.92
12,GACCAAUCUGCCCUCAGAGCUCUAGGACAUCUUCGGAUGCAGAGGAGGCAGGCUUCGGUGGCUCGAUAGCGCCAACGUCCUGAACCUCCAAUGCAUCCCACCACAUGAUGAUGCCUGAAGAGCCUUGGUUUUAUG [G23U A26G G63U C82G U133A],-7.09
13,GACCAAUCUGCCCUCAGAGCUCCAGAACAUCUUCGGAUGCAGAGGAGGCAGGUUUCGGUGGCGCGAUAGCGCCAACGUCCUCAACCUCCAAGGCAUCCCACCACAUGAUGAUGCCUGAAGAGUCUUGGUUUUUUG [G23C C53U U92G C123U],-8.04
14,GACCAAUCUGCCCUCAGAGCUCCAGAACAUCUUCGGAUGCAGAGGAGGCAGGCUUCGGUGGCGCGAUACCGCCAACGUCCUCAACCUCCAAUGGAACCCACCACAUGAUGAUUCCUGAACAGCCUUGGUUUUUUG [G23C G69C C94G U96A G113U G120C],-7.12
15,GACCAAUCUGCCCUCAGAGCUCAAGAACAUCUUCGGAUGCAGAGGAGGCAGGCUUCGGUGGCGCGAUAGCGCCAACGUCCUCAACCUCCAAUGCAUUCCACCACAUGAUGAUGCCUGAAGUGCCUUGGUUUUUUG [G23A C97U A121U],-4.57
16,GACCAAUCUGCCCUCAGAGCUCAAGAACAUCUUCGGAUGCAGAGGAGGCUGGCUUCGGUGGCGCGAUAGCGCCAACGUCCUCAACCUCCAAUGCAUCCCACCACAUGAUGAUGCCUGAAGAGCCUUGGUUUUUUG [G23A A50U],-5.56
17,GACCAAUCUGCCCUCAGAGCUCAAGAACAUCUUCGGAUGCAGAGAAGGCAGGCUUCGGUGGCGCGAUAGCGCCAACGUCCUCAACCUCCAAUGCAUCCCACCACAUGAUGAUGCCUGAAGAGCCUUGGUUUUUUG [G23A G45A],-5.16
18,GACCAAUCUGCCCUCAGAGCUCGCGAACAUCUUCGGAUGCAGAGGAGGCAGGCUUCGGUGACGCGAUAGCGCCAACGUCCUCAACCUCCAAUGCAUCCCACCACAUGAUGAUGCCUGAAGAGCCUUGGUUUUUUG [A24C G61A],-6.26
19,GACCAAUCUGCCCUCAGAGCUCUAGAACAUCUUCGGAUGCAGAGGAGGCAGGCUUCGGUGGCGCGAUAGAGCCAACGUCCUCAACCUCCAGUGCAUCCCACCACAUUAUGAUGUCUGAAGAGCCUUGGUUUUUUG [G23U C70A A91G G107U C114U],-5.99
20,GACCAAUCUGCCCUCAGAGCUCAAGAACAUCUUCGGAUGCAGAGGAGGCAGGCUUCGGUGGCGCGAUAGCGCCAACGUCCUCAACCUCCAAUGCAUCCCACCACAUGAUGAUGCCUUAAGAGCCUUGGUUUUUUG [G23A G117U],-7.76
21,GACCAAUCUGCCCUCAGAGCUUGAGAACAUCUUCGGAUGCAGAGGAGGCAGGCUUCGGUGGCGCGAUAGCGCCAACGUCCUCAACCUCCAAUGCAUCCCACCACAUGAUGAUGCCUGAAGAGCCUUGGAUUUUUG [C22U U129A],-5.14

row,Variant,polymerase ribozyme fitness (log ratio)
1,GACCAAUCUGCCCUCAGAGCUCAAGAACAUCUUCGGAUGCAGAGGAGGCAGGCUUUGGUGGCGCGAUAGCGCCAACGUCCUCAACCUCCAAUGCAUCCCACCACAUGAUGAUGCCUGAAGAGCCUUGGUUUUUUG [G23A C56U],-3.66
2,GACCAAUCUGCCCUCAGAGCUCCAGAACAUCUUCGGAUGCAGAGGAGGCAGGCUUCGGUGGCGCGAUAUCGCCAACGUCCUCAACCUCCAAUGCAUCCCACCACAUGAUGAUGCCUGAAGAGCCUUGGUUUUUUG [G23C G69U],-5.11
3,GACCAAUCUGCCCUCAGAGCUCAAGAACAUCUUCGGAUGCAGAGGAGGCAGGCUUCGGUGGCGCGAUAGCGCAAACGUCCUCAACCUCCAAUGCAUCCCACCACAUGAUGAUGCCUGAAGAGCCUUGGUUUUUUG [G23A C73A],-5.86
4,GACCAAUCUGCCCUCAGAGCUCAAGAACAUCUUCGGAUGCAGAGGAGGCAGGCUUCGGUGGCGCGAUAGCGCGAACGUCCUCAACCUCCAAUGCAUCCCACCACAUGAUGAUGCCUGAAGAGCCUUGGUUUUUUG [G23A C73G],-3.9
5,GACCAAUCUGCCCUCAGAGCUUGAGAACAUCUUCGGAUGCAGAGGAGGCAGGCUUCGGUGGCGCGAUAGCGCCAACGUCCUCAACCUCCAAGGAAUCCCACCAGAUGAGGAUGCCUGAAGAAACAUGGUUUUUUG [C22U U92G C94A C104G U109G G122A C123A U125A],-7.36
6,GACCAAUCUGCCCUCAGAGCUCCAGAACAUCUUCGGAUGCAGAGGAGGCAGGCUUCGGUAGCGCGAUAGCGCCAACCUCCUCAACCUCCAAUGCAUCGCACCACAUGAUGAUGCCUGAUGAGCCUUGGUUUUUUG [G23C G60A G77C C98G A119U],-7.44
7,GACCAAUCUGCCCUCAGAGCUCUAGAACAUCUUAGGAUGCAGAGGAAGCAGGGUUCGGUGGCGCGAUAGCGCCAACGUCCUCAACCUCCAAUGCAUCCCACCACAUGAUCAUGCCUGAAGAGCCUUGGGUUUUUG [G23U C34A G47A C53G G110C U129G],-7.48
8,GACCAAUCUGCCCUCAGAGCUUGAGAACAUCUUCGGAUGCAGAGGAGGCAGGCUGCGGUGGCGCGAUAGCGACAACGUACUCAACCUCCAAUGCAUCCCACCACAUGAUGAUGCCUGAAGAGACUUGGUUUUUUG [C22U U55G C72A C79A C123A],-6.59
9,GACCAAUCUGCCCUCAGAGCUCGCGAACAUCUUCGGAUACAGAGGAGGCAGGCUCCGGUGGCGCGAUAGCGCCAACGUCCUCAACCUCCAAUGCAUCCCACCAAAUGAUGAUGCCUGAAGAGCGUUGGUUUUUUG [A24C G39A U55C C104A C124G],-5.87
10,GACCAAUCUGCCCUCAGAGCUCUAGAACAUCUUCGGAUGCAGAGGAGGCAGGCUUCGAUCGCGCGAUAGCGCCAACGUCCUCAACCUCCAAUGCAUCCCACCACAUGAUGAUGCCUGAACAGCCUUGGUUUUUUG [G23U G58A G60C G120C],-7.23
11,GACCAAUCUGCCCUCAGAGCUUGAGAACAUCUUCGGAUGCAGAGGAGGCAGGCUUCGGUGGCGCGAUAGCGCCAACGUCCUCAACCUCCAAUGCAACCCACCACAUGAUGAUGCCUGAAGAGCCUUGGUUUUUUG [C22U U96A],-4.62
12,GACCAAUCUGCCCUCAGAGCUCCAGAACACCUUCGGAUGCAUAGGAGGCAGGCUUCGGUGGCGCGAUAACGCCAACGGCCUCAACCUCCAAUGCAUCCCACCACCUGAUGAUGCGUGAAGAGCCUUGGUUUUUUG [G23C U30C G42U G69A U78G A105C C115G],-7.04
13,GACCAAUCUGCCCUCAGAGCUCUAGAACAUCUUCGGAUGCAGAGGAGGCAGGCUUCGGUGGCGCGAUAGCGCGAACGUCCUCAACCUCCAAUGCAUCCCACCACAUGAUGAUGCCUGAAGAGCCUUGGUUUUUUG [G23U C73G],-4.76
14,GACCAAUCUGCCCUCAGAGCUCAAGAACAUCUUCGGAUGCAGAGGAGGCAGGCUUUGCUGGCGCGAUAGUGCCAACGUCCUCAACCUCCAAUGCAUCCCACCAGAUGAUGAUGCCUGAAGAACCUUGGUUUUUUG [G23A C56U G58C C70U C104G G122A],-7.86
15,GACCAAUCUGCCCUCAGAGCUCGCGAACAUCUUCGGAUGCAGAGGAGGCAGGCUUCGGUGGCGCGAUAGCGCCAACGUCCUCAACCUCCAAUGCAUCCCACCACAUGAUGAUGCCUGAAGAGCAUUGGUUUUUUG [A24C C124A],-5.24
16,GACCAAUCUGCCCUCAGAGCUCCAGGACAUCUUCGGAUGCAGAGGAGGCAGGCUUCGGUGGCGCGAUAGCGCCAACGUCCUUAACCUCCAAUGCAUCCCACCACAUGAUGAUGCCUGAACAGCCUUGGUUUUUUG [G23C A26G C82U G120C],-4.02
17,GACCAAUCUGCCCUCAGAGCUCCAGAACAUCUUCGGAUGCAGAGGAGGCAGGCUUCGGUGGCGCGAUAGAGCCAACGUCCUCAACCUCCAAUGCAUCCCACCACAUGAUGAUUCCUCAAGAGCCUUGGUUUUUUG [G23C C70A G113U G117C],-6.09
18,GACCAAUCUGCCCUCAGAGCUCGCGAACAUGGUCGGAUGCAGAGGAGGCAGGCUUCGGUGGUGCGAUAGCGCCAACGUCCUCAACCUCCAAUGCAUCCCACCACAUGAUGAUGGCUGAAGAGCCUUGGUUUUUUG [A24C C31G U32G C62U C114G],-8.07
19,GACCAAUCUGCCCUCAGAGCUCAAGAACAUCUUCGGAUGCAGAGGAGGCAGGCUUCGGUGGCGCGAUAGCGCCAACGUCCUCAACCUCCAAUGCAUCCCACCACAUGAUGAUGCCUGAAGUGCCUUGGUUUUUUG [G23A A121U],-2.19
20,GACCAAUCUGCCCUCAGAGCUCGCGAACAUCUUCAGAUGCAGAGGAGGCAGGCUGCGGUGGCGCGAUAGCGCCAACGUCCUCAACCUCCAAUGCAUCCCACCACAUGAUGAUGCUUGAAGAGCCUUUGUUUUUUG [A24C G35A U55G C115U G127U],-6.12
21,GACCAAUCUGCCCUCAGAGCUCAAGAACAUCUUCGGAUGCAGAGGAGGCAGGCUUCGGUGGCGCGAUAGCACCAACGUCCUCAACCUCCAAUGCAUCCCACCACAUGAUGAUGCCUGAAGAGCCUUGGUUUUUUG [G23A G71A],-5.75
